According to patent US20230183713A1, “SITE-SPECIFIC RECOMBINASES FOR EFFICIENT AND SPECIFIC GENOME EDITING” (TECHNISCHE UNIVERSITÄt DRESDEN, published 2023):
Residue numbers refer to the chain shown, from its start. Numbers in names are those of the source.

What was measured:
[1] = target: T1, Cre recombinase monomer with Y324I mutation
T1 chain: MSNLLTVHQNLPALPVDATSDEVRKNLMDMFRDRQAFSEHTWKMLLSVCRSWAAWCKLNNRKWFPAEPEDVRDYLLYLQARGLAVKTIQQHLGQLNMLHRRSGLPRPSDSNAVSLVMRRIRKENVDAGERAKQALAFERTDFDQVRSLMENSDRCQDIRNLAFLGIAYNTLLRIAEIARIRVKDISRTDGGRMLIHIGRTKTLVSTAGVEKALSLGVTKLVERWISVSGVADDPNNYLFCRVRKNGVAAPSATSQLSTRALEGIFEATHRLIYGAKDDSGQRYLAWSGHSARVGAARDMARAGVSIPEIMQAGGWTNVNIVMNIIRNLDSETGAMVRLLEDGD

[2] = target: T2, Cre recombinase monomer with W315N mutation
T2 chain: T1 chain with W315N, I324Y

[3] = target: T3, Cre recombinase monomer with W315L mutation
T3 chain: T1 chain with W315L, I324Y

[4] = target: T4, Cre recombinase monomer with Y324F mutation
T4 chain: T1 chain with I324F

[5] = target: T5, Cre recombinase monomer with Y324S mutation
T5 chain: T1 chain with I324S

[6] = target: T6, Cre recombinase monomer with Y324R mutation
T6 chain: T1 chain with I324R

[7] = target: T7, Cre recombinase monomer with Y324V mutation
T7 chain: T1 chain with I324V

[8] = target: T8, Cre recombinase monomer with Y324H mutation
T8 chain: T1 chain with I324H

B1: Cre recombinase monomer with Q311R mutation (protein)
chain: T1 chain with Q311R, I324Y
**Q.** With B1 as the protein, how does the “Median dimer activity (recombination on loxP)” value (shortened to “Median dimer activity”) [1] read?
**A.** 96%

**Q.** And the “Median dimer activity” value [2]?
**A.** 64%

**Q.** And the “Median dimer activity” value [3]?
**A.** 68%

**Q.** And the “Median dimer activity” value [4]?
**A.** 95%

**Q.** And the “Median dimer activity” value [5]?
**A.** 81%

**Q.** And the “Median dimer activity” value [6]?
**A.** 61%

**Q.** And the “Median dimer activity” value [7]?
**A.** 90%

**Q.** And the “Median dimer activity” value [8]?
**A.** 76%
